Laboratory results as given in US20240317834A1, “COMPOSITIONS AND METHODS FOR NEUROLOGICAL DISEASES” (CODA BIOTHERAPEUTICS, INC., priority 2020, published 2024).

System: Lenti-X 293T cells
Experiment: YFP fluorescence quenching anion reporter plate reader assay of engineered receptors stimulated with acetylcholine or a non-native ligand
Format: cell-based
Details: for percent quench of YFP fluorescence, 10 uM ach: acetylcholine 10 uM; for percent quench of YFP fluorescence, 100 uM ach: acetylcholine 100 uM; for percent quench of YFP fluorescence, 1 mM ach: acetylcholine 1 mM; for percent quench of YFP fluorescence, 3 mM ach: acetylcholine 3 mM
Description: To screen these mutant LGICs for those having novel response profiles to ligands, an anion reporter assay was developed to assess the function of the LGICs in a high throughput format. In this assay, cells expressing a YFP reporter whose fluorescence is quenched in the presence of anion are transfected with DNA encoding the channel of interest. Upon exposure to ligand, channels that are activated will flux anion, resulting in a dose-dependent quench of the YFP that can be detected on a plate reader. The greater the quench signal (i.e., the more positive the value), the higher the ligand activity on the receptor is.
Lenti-X 293T cells (LX293T, Clontech) were maintained in DMEM containing 10% FBS and 1% penicillin/streptomycin (Invitrogen). […] Two days before assay, cells were split at a density of 20,000 cells/well in a 96-well tissue culture plate coated with poly-d lysine (Thermo Scientific). The next day, the cells were transiently transfected with 0.1 μg of DNA per well using standard Fugene protocol (Promega). On the day of assay, cells were washed 2 times in 1× extracellular solution (1×ECS: 140 mM NaCl, 5 mM KCl, 1 mM MgCl2, 2 mM CaCl2), 10 mM HEPES, 10 mM glucose, pH 7.2, mOsms 300). After the last wash, 100 μL of 1×ECS was added to the wells and the plate was incubated at 37° C. for 30 min. While incubating the plate, the drugs were diluted to a 2× concentration in 1×ECS-NaI (same components as 1×ECS except the 140 mM NaCl was replaced by 140 mM NaI). The plates were then read on a Flexstation3 (Molecular Devices). Each well, 8 wells at a time, of the plate is read for 2 min using a Flexstation3 (Molecular Devices) as follows: 1) a baseline YFP fluorescence is read for 17 sec, 2) 100 μL of ligand is added, and 3) the changes in YFP fluorescence are then measured every 1.3 sec for 1 minute and 43 seconds. The percent quench is calculated from the average fluorescence of the last 10 seconds of the read divided by the baseline average of the first 15 seconds prior to the ligand addition.
FIGS. 1A-1J provide heat maps of the percent quench of YFP fluorescence following stimulation by various doses of either acetylcholine or the non-native ligand as indicated in the Figures. CODA71 (SEQ ID NO: 33) was used as a control, and CODA75 (SEQ ID NO: 29, a non-responding chimeric engineered receptor) was used as the negative control. Quenching of the fluorescence signal, as indicated by blue shaded cells, indicate the level of engineered receptor activation by the non-native ligand at that concentration.

B1: CODA283: engineered chimeric LGIC receptor, Y115E_N379K in SEQ ID NO: 33 (protein)
chain: MRCSPGGVWLALAASLLHVSLQGEFQRKLYKELVKNYNPLERPVANDSQPLTVYFSLSLLQIMDVDEKNQVLTTNIWLQMSWTDHYLQWNVSEYPGVKTVRFPDGQIWKPDILLENSADERFDATFHTNVLVNSSGHCQYLPPGIFKSSCPMDLKNFPMDVQTCKLKFGSWSYGGWSLDLQMQEADISGYIPNGEWDLVGIPGKRSERFYECCKEPYPDVTFTVTMRRRMGYYLIQMYIPSLLIVILSWISFWINMDAAPARVGLGITTVLTMTTQSSGSRASLPKVSYVKAIDIWMAVCLLFVFSALLEYAAVNFVSRQHKELLRFRRKRRHHKSPMLNLFQEDEAGEGRFNFSAYGMGPACLQAKDGISVKGANNSKTTNPPPAPSKSPEEMRKLFIQRAKKIDKISRIGFPMAFLIFNMFYWIIYKIVRREDVHNQ
modifications: synthetic sequence of chimeric LGIC
YFP fluorescence quenching using CNL001 (1 nM CNL001, first column): −0.713% | YFP fluorescence quenching using CNL001 (1 nM CNL001, second column): −0.621% | YFP fluorescence quenching using TC-5619/Bradanicline (1 nM brd): 0.59% | YFP fluorescence quenching using TC-5619/Bradanicline (3 nM brd): −6.41% | YFP fluorescence quenching using CNL001 (10 nM CNL001, first column): 7.739% | YFP fluorescence quenching using CNL001 (10 nM CNL001, second column): 15.277% | YFP fluorescence quenching using TC-5619/Bradanicline (10 nM brd): −1.58% | YFP fluorescence quenching using TC-5619/Bradanicline (30 nM brd): −14.24% | YFP fluorescence quenching using Facinicline (30 nM fac): 6.39 | YFP fluorescence quenching using CNL001 (50 nM CNL001, first column): 19.489% | YFP fluorescence quenching using CNL001 (50 nM CNL001, second column): 33.703% | YFP fluorescence quenching using ABT-126 (50 nM abt): −22.65% | YFP fluorescence quenching using CNL001 (100 nM CNL001, first column): 56.886% | YFP fluorescence quenching using CNL001 (100 nM CNL001, second column): 60.171% | YFP fluorescence quenching using CNL002 (100 nM CNL002): −5.81% | YFP fluorescence quenching using ABT-126 (100 nM abt): −20.55% | YFP fluorescence quenching using AZD-0328 (100 nM azd0328): −2.1% | YFP fluorescence quenching using TC-5619/Bradanicline (100 nM brd): 33.36% | YFP fluorescence quenching using ABT-126 (300 nM abt): −12.93% | YFP fluorescence quenching using AZD-0328 (300 nM azd0328): 38.2% | YFP fluorescence quenching using TC-5619/Bradanicline (300 nM brd): 43.81% | YFP fluorescence quenching using Facinicline (300 nM fac): 78.36 | YFP fluorescence quenching using CNL001 (1 uM CNL001, first column): 69.836% | YFP fluorescence quenching using CNL001 (1 uM CNL001, second column): 73.855% | YFP fluorescence quenching using CNL002 (1 uM CNL002): 9.69% | YFP fluorescence quenching using ABT-126 (1 uM abt): 1.71% | YFP fluorescence quenching using TC-5619/Bradanicline (1 uM brd): 75.39% | YFP fluorescence quenching using TC-6987 (1 uM tc6987): −9.54 | YFP fluorescence quenching using Facinicline (10 uM fac): 81.93 | YFP fluorescence quenching using TC-6987 (10 uM tc6987): −7.06 | YFP fluorescence quenching using CNL002 (30 uM CNL002): −12.85% | YFP fluorescence quenching using AZD-0328 (30 uM azd0328): 79.44% | YFP fluorescence quenching using Facinicline (30 uM fac): 78.63 | YFP fluorescence quenching using TC-6987 (500 uM tc6987): −15.15 | percent quench of YFP fluorescence, 10 uM ach: −6.16% | percent quench of YFP fluorescence, 100 uM ach: −11.12% | percent quench of YFP fluorescence, 1 mM ach: −2.74% | percent quench of YFP fluorescence, 3 mM ach: 53.61%

B2: CODA325: engineered chimeric LGIC receptor, L131G in SEQ ID NO: 33 (protein)
chain: MRCSPGGVWLALAASLLHVSLQGEFQRKLYKELVKNYNPLERPVANDSQPLTVYFSLSLLQIMDVDEKNQVLTTNIWLQMSWTDHYLQWNVSEYPGVKTVRFPDGQIWKPDILLYNSADERFDATFHTNVGVNSSGHCQYLPPGIFKSSCPMDLKNFPMDVQTCKLKFGSWSYGGWSLDLQMQEADISGYIPNGEWDLVGIPGKRSERFYECCKEPYPDVTFTVTMRRRMGYYLIQMYIPSLLIVILSWISFWINMDAAPARVGLGITTVLTMTTQSSGSRASLPKVSYVKAIDIWMAVCLLFVFSALLEYAAVNFVSRQHKELLRFRRKRRHHKSPMLNLFQEDEAGEGRFNFSAYGMGPACLQAKDGISVKGANNSNTTNPPPAPSKSPEEMRKLFIQRAKKIDKISRIGFPMAFLIFNMFYWIIYKIVRREDVHNQ
modifications: synthetic sequence of chimeric LGIC
YFP fluorescence quenching using CNL001 (1 nM CNL001, first column): 74.429% | YFP fluorescence quenching using CNL001 (1 nM CNL001, second column): 78.715% | YFP fluorescence quenching using TC-5619/Bradanicline (3 nM brd): 68.45% | YFP fluorescence quenching using Varenicline (3 nM var, first column): −12.241 | YFP fluorescence quenching using Varenicline (3 nM var, second column): −9.415 | YFP fluorescence quenching using CNL001 (10 nM CNL001, first column): 79.033% | YFP fluorescence quenching using CNL001 (10 nM CNL001, second column): 79.322% | YFP fluorescence quenching using TC-5619/Bradanicline (30 nM brd): 76.95% | YFP fluorescence quenching using Facinicline (30 nM fac): 75.75 | YFP fluorescence quenching using Varenicline (30 nM var, first column): 75.334 | YFP fluorescence quenching using Varenicline (30 nM var, second column): 72.278 | YFP fluorescence quenching using CNL001 (50 nM CNL001, first column): 79.966% | YFP fluorescence quenching using CNL001 (50 nM CNL001, second column): 80.091% | YFP fluorescence quenching using ABT-126 (50 nM abt): −17.39% | YFP fluorescence quenching using CNL001 (100 nM CNL001, first column): 81% | YFP fluorescence quenching using CNL001 (100 nM CNL001, second column): 79.701% | YFP fluorescence quenching using CNL002 (100 nM CNL002): 45.62% | YFP fluorescence quenching using ABT-126 (100 nM abt): 6.89% | YFP fluorescence quenching using AZD-0328 (100 nM azd0328): 79.75% | YFP fluorescence quenching using ABT-126 (300 nM abt): 38.65% | YFP fluorescence quenching using AZD-0328 (300 nM azd0328): 80.62% | YFP fluorescence quenching using TC-5619/Bradanicline (300 nM brd): 77.1% | YFP fluorescence quenching using Facinicline (300 nM fac): 78.01 | YFP fluorescence quenching using Varenicline (300 nM var, first column): 78.305 | YFP fluorescence quenching using Varenicline (300 nM var, second column): 77.83 | YFP fluorescence quenching using Varenicline (500 nM var, first column): 75.936 | YFP fluorescence quenching using Varenicline (500 nM var, second column): 76.788 | YFP fluorescence quenching using CNL001 (1 uM CNL001, first column): 79.289% | YFP fluorescence quenching using CNL001 (1 uM CNL001, second column): 80.581% | YFP fluorescence quenching using CNL002 (1 uM CNL002): 74.72% | YFP fluorescence quenching using ABT-126 (1 uM abt): 45.82% | YFP fluorescence quenching using TC-6987 (1 uM tc6987): 64.59 | YFP fluorescence quenching using Varenicline (1 uM var, first column): 77.805 | YFP fluorescence quenching using Varenicline (1 uM var, second column): 77.352 | YFP fluorescence quenching using TC-6987 (10 uM tc6987): 76.28 | YFP fluorescence quenching using CNL002 (30 uM CNL002): 77.4% | YFP fluorescence quenching using AZD-0328 (30 uM azd0328): 80.19% | YFP fluorescence quenching using Facinicline (30 uM fac): 76.61 | YFP fluorescence quenching using TC-6987 (500 uM tc6987): 70.95 | percent quench of YFP fluorescence, 30 nM TC-6683 (TC-6683 30 nM): −21.27% | percent quench of YFP fluorescence, 300 nM TC-6683 (TC-6683 300 nM): −18.33% | percent quench of YFP fluorescence, 3 uM TC-6683 (TC-6683 3 uM): −7.03% | percent quench of YFP fluorescence, 30 uM TC-6683 (TC-6683 30 uM): 56.84% | percent quench of YFP fluorescence, 100 uM TC-6683 (TC-6683 100 uM): 64.51% | percent quench of YFP fluorescence, 10 uM ach: 5.66% | percent quench of YFP fluorescence, 100 uM ach: 74.07% | percent quench of YFP fluorescence, 1 mM ach: 62.65% | percent quench of YFP fluorescence, 3 mM ach: 69.49%
